Data published in US12365710B2, “HMGB1 protein derivatives for the removal of biofilms” (RESEARCH INSTITUTE AT NATIONWIDE CHILDREN'S HOSPITAL, priority 2018, dated 2025).
Read-outs that look alike come from different tables or passages of the source.

B1: mHMGB1: engineered C45S variant of full length rHMGB1 that mimics the reduced form of HMGB1 (protein, UniProt P09429 1-215, looked up, variant C45S)
chain: MGKGDPKKPRGKMSSYAFFVQTCREEHKKKHPDASVNFSEFSKKSSERWKTMSAKEKGKFEDMAKADKARYEREMKTYIPPKGETKKKFKDPNAPKRPPSAFFLFCSEYRPKIKGEHPGLSIGDVAKKLGEMWNNTAADDKQPYEKKAAKLKEKYEKDIAAYRAKGKPDAAKKGVVKAEKSKKKKEEEEDEEDEEDEEEEEDEEDEDEEEDDDDE
modifications: full-length
notes: engineered C45S variant of full length rHMGB1 that mimics the reduced form of HMGB1
B2: B-linker Box: HMGB1 B Box with N- and C-terminal linker (80-179; 80 to 176 in b258), 97 amino acid (protein, UniProt P09429 80-179, looked up, fragment)
chain: PPKGETKKKFKDPNAPKRPPSAFFLFCSEYRPKIKGEHPGLSIGDVAKKLGEMWNNTAADDKQPYEKKAAKLKEKYEKDIAAYRAKGKPDAAKKGVVKAE

Experiments:
[1] = test system: Klebsiella pneumoniae biofilms; experiment: in vitro disruption of pre-formed biofilms, LIVE/DEAD, CLSM and COMSTAT; type: cell-based; settings: for disruption of established K. pneumoniae biofilms (average thickness, biomass): 200 nM added at 24 h, 16 h incubation; for % reduction in average thickness (AT), mean±SE / % reduction in biomass (BM), mean±SE: 200 nM added to pre-formed biofilms at 24 h, read at 40 h, vs untreated KP biofilms
Method: (§1) FIGS. 5A-5E: Anti-biofilm effect of HMGB1 variants on high priority bacterial pathogens. Indicated HMGB1 variants or antibodies against DNABII proteins (α-1HFEc 1gG, 1 μM) were added at 24 h to the respective preformed bacterial biofilms, in vitro. After 16 h of Incubation, biofilms were stained with LIVE/DEAD®, then visualized via confocal laser scanning microscopy. Images were analyzed by COMSTAT to calculate average thickness and comparison to control was plotted. (FIG. 5A) Full-length HMGB1 isoforms (200 nM unless otherwise indicated) added to UPEC, B. cenocepacia, NTHI, or ESKAPE pathogens. 800 nM rHMGB1 and 200 nM mHMGB1 were added for S. aureus (ESKAPE). 800 nM rHMGB1, 800 nM mHMGB1, or 3.3 μM of α-1HFEc 1gG were added for E. faecium (ESKAPE) and were incubated for 1 h as opposed to 16 h to avoid potential degradation by E. faecium proteases. (FIG. 5B) Representative images of UPEC biofilms incubated with increasing concentrations of rHMGB1. (FIG. 5C) Individual domains of HMGB1 (200 nM) were tested for anti-biofilm activity as above (dotted line indicates control values). Bars represent the SEM. Statistical significance compared to control was assessed with unpaired t-tests, *P<0.05. […] (FIGS. 5D-5E) HMGB1 and variants disrupt preformed Klebsiella pneumoniae biofilms. rHMGB1, HMGB1 C45S (mHMGB1), bovine HMGB1 (bHMGB1), B box, B Box C106S (mB Box), A Box, and A+B Box were added (200 nM) at 24 h to preformed K. pneumoniae biofilms. After 16 h of incubation, biofilms were stained with LIVE/DEAD®, then visualized via confocal laser scanning microscopy. Images were analyzed by COMSTAT to calculate average thickness and total biomass. Error bars represent the SEM. ***P<0.0001; ns=not significant.
An in vitro biofilm assay was used to test the effect of HMGB1 and its variants on established bacterial biofilms. Applicant expressed, (in E. coli) and purified >95% human recombinant full length HMGB1 (rHMGB1; 1-215), a C45S mutated variant (mHMGB1) and the HMGB1 domains A Box (1-89), A+B Boxes (1-176), B Box (80-179), and B Box C106S (mB Box) (FIG. 3). […] To evaluate the effect of HMGB1 and its variants as well as a commercially available native bovine HMGB1 (used as a control) on established bacterial biofilms, each protein was added (at 200 nM), to pre-formed Klebsiella pneumoniae biofilms after 24 h of growth. After a 16 h incubation (40 h total biofilm growth), the biofilms were stained with LIVE/DEAD® and analyzed using confocal laser scanning microscopy (CLSM) and COMSTAT analysis to calculate the average thickness and total biomass of the biofilms. […] The results of this study lead to a noteworthy observation that a single dose of these non-antimicrobial compounds was able to disrupt recalcitrant biofilms. In addition, the HMGB1 variants have disrupted every bacterial species tested to date, which includes Uropathogenic E. coli, Burkholderia cenocepacia, Nontypeable Haemophilus influenzae (FIG. 6). A single dose at this concentration released of bacteria from their protective shield makes them vulnerable to clearance by antibiotics and the immune system.
Klebsiella pneumoniae (KP), a common cause of nosocomial infections was used for all BBs disruption assays. Human recombinant full length HMGB1 (rHMGB1; 1-215), a C45S mutation variant (mHMGB1) and the HMGB1 domains A Box (1-89), B Box (90-176), AB Boxes (1-176), B-linker Box (80-179), and B-linker Box C106S were expressed (in E. coli) and purified to >95%. To evaluate the effect of rHMGB1 and the various domains on established BBs, each protein species (200 nM) was added to pre-formed BBs at 24 h. At 40 h the BBs were washed, stained with LIVE/DEAD®, visualized via confocal laser scanning microscopy and images were analyzed by COMSTAT to calculate average thickness and biomass.

serum TNF-alpha (TNF-α) = settings: cited from earlier work
NTHI biofilm = experiment: in vitro disruption of established biofilms, CLSM and COMSTAT; type: cell-based, Nontypeable Haemophilus influenzae; settings: 200 nM added at 24 h, 16 h exposure
Method: as §1
HMGB1 disrupts pathogenic biofilms: To test the effect of HMGB1 on bacterial biofilms (FIG. 5), Applicant cloned (IMPACT®, NEB Ipswich, MA), expressed (in E. coli), and purified (heparin sepharose chromatography to >95% purity) tagless human recombinant HMGB1 (rHMGB1) and an engineered C45 S variant (mHMGB1) that mimics the reduced form of HMGB1. rHMGB1 readily forms an intramolecular disulfide bond between C23 and C45 that contributes to pro-inflammatory activity whereas mHMGB1 cannot. These HMGB1 isoforms were evaluated for ability to disrupt established biofilms (formed for 24 h prior to addition). After a 16 h exposure to a single dose of rHMGB1 (200 nM; ˜25-fold greater than typical sepsis serum concentration, but not able to directly induce sepsis), biofilms formed by a wide variety of high priority species were stained with LIVE/DEAD®, analyzed using confocal laser scanning microscopy (CLSM) and COMSTAT analysis and compared to control biofilms. […] Preliminary analysis of PTMs by LC-MS/MS analysis (MS Bioworks, LLC Ann Arbor, MI) indicated minimal modification of both rHMGB1 and nHMGB1 (<20% of the observed peptides had any given PTM, FIG. 1C). […] Thus, while there are intrinsic differences in sensitivity among pathogens, the biofilms formed by all of the tested high priority pathogens were susceptible to a single dose of these non-antimicrobial compounds.
HMGB1 domain structure and anti-biofilm activity: Applicant then produced recombinant HMGB1 truncation variants, of 1) the A Box, a self-contained DNA-binding domain (residues 1-89); 2) an A-B Boxes construct (lacks the C tail; residues 1-185); and 3) the B Box (residues 80 to 176, FIGS. 1A and 1C). […]

Molecule	disruption of established K. pneumoniae biofilms (average thickness, biomass) [1]	% reduction in average thickness (AT), mean±SE [1]	% reduction in biomass (BM), mean±SE [1]	amount required to induce sepsis, compared to our doses (serum TNF-alpha (TNF-α); 4 doses in 40 h, LPS-primed mice) [fold]	disruption of established NTHI biofilms (NTHI biofilm)	amount required to induce sepsis, compared to our doses (serum TNF-alpha (TNF-α); B Box alone) [fold]
rHMGB1: tagless human recombinant full length HMGB1 (1-215) expressed in E. coli	significantly disrupt	44%±0.33	61%±0.01	2	not as responsive	–
B1	–	75%±0.04	80%±0.01	–	–	–
B2	retained full anti-biofilm activity	77%±0.03	67%±0.01	–	retained full anti-biofilm activity	> 450
